Reference: patent publication US20210196796A1 (SYNTHEKINE, published 2021)

T1: orthogonal hCD122 receptor (hoRb), hCD122 with H133D and Y134F (human, UniProt P14784 27-550)
T1 sequence: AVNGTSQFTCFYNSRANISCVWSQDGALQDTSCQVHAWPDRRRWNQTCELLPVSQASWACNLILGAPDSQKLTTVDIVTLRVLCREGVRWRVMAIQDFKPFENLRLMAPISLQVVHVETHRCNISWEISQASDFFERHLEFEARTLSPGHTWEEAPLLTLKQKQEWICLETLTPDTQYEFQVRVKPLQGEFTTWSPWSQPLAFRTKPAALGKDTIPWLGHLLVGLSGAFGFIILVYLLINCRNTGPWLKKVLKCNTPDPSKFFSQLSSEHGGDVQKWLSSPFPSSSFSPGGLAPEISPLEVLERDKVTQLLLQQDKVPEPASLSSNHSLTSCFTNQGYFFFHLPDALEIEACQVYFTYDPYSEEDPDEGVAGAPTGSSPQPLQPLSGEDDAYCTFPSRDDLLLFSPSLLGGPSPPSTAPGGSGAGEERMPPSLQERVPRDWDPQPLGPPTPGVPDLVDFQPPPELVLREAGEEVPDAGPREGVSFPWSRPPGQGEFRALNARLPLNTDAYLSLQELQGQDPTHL


Legend:
[1] = target: T1, orthogonal hCD122 receptor (hoRb), …; assay: cell-based or functional assay
[2] = target: T1, orthogonal hCD122 receptor (hoRb), …; assay: cell-based or functional assay; remark: listed apart in the source

NKL Ortho Proliferation Signal 1:2 [1] | NKL Ortho Proliferation Signal 1:10 [1] | NKL Ortho Proliferation Signal 1:50 [1] | Relative Proliferation Fold Change NKL 1:2 [1] [fold] | Relative Proliferation Fold Change NKL 1:10 [1] [fold] | Relative Proliferation Fold Change NKL 1:50 [1] [fold] | 3F8 Ortho Proliferation Signal 1:2 [2] [cts/min] | 3F8 Ortho Proliferation Signal 1:10 [2] [cts/min] | 3F8 Ortho Proliferation Signal 1:50 [2] [cts/min] | Relative Proliferation Fold Change 3F8 1:2 [2] [fold] | Relative Proliferation Fold Change 3F8 1:10 [2] [fold] | Relative Proliferation Fold Change 3F8 1:50 [2] [fold] | Binder
21100 | 18200 | 9480 | 1.78 | 1.19 | 0.67 | 33400 | 31600 | 12600 | 32.9 | 28.2 | 13.1 | SQVLEA (ligand) APTSSSTKKTQLQLSQLLVLLEAILNGINNYKNPKLTRMLTFKFYMPKKATELKHLQCLEEELKPLEEVLNLAQSKNFHLRPRDLISNINVIVLELKGSETTFMCEYADETATIVEFLNRWITFCQSIISTLT
 |  |  | 1.23 |  |  |  |  |  |  |  |  | SQVLFA (Ref# 073) (ligand) APTSSSTKKTQLQLSQLLVLLFAILNGINNYKNPKLTRMLTFKFYMPKKATELKHLQCLEEELKPLEEVLNLAQSKNFHLRPRDLISNINVIVLELKGSETTFMCEYADETATIVEFLNRWITFCQSIISTLT
13500 | 11700 | 8730 | 1.1 | 0.83 | 0.6 | 18000 | 9170 | 2300 | 74.5 | 15.6 | 5.06 | SQVLGA (ligand) APTSSSTKKTQLQLSQLLVLLGAILNGINNYKNPKLTRMLTFKFYMPKKATELKHLQCLEEELKPLEEVLNLAQSKNFHLRPRDLISNINVIVLELKGSETTFMCEYADETATIVEFLNRWITFCQSIISTLT
16400 | 16100 | 8570 | 1.5 | 1.06 | 0.59 | 19700 | 9730 | 3150 | 59.8 | 13 | 4.68 | SQVLLA (ligand) APTSSSTKKTQLQLSQLLVLLLAILNGINNYKNPKLTRMLTFKFYMPKKATELKHLQCLEEELKPLEEVLNLAQSKNFHLRPRDLISNINVIVLELKGSETTFMCEYADETATIVEFLNRWITFCQSIISTLT
 |  |  | 1.23 |  |  |  |  |  |  |  |  | SQVLFA (Ref# 079) (ligand) APTSSSTKKTQLQLSQLLVLLFAILNGINNYKNPKLTRMLTFKFYMPKKATELKHLQCLEEELKPLEEVLNLAQSKNFHLRPRDLISNINVIVLELKGSETTFMCEYADETATIVEFLNRWITFCQSIISTLT
14600 | 11800 | 9400 | 1.05 | 0.72 | 0.62 | 15900 | 7290 | 2940 | 69.2 | 10.1 | 4.29 | SQVLAA (ligand) APTSSSTKKTQLQLSQLLVLLAAILNGINNYKNPKLTRMLTFKFYMPKKATELKHLQCLEEELKPLEEVLNLAQSKNFHLRPRDLISNINVIVLELKGSETTFMCEYADETATIVEFLNRWITFCQSIISTLT
20500 | 18600 | 11000 | 1.4 | 1.07 | 0.65 | 20800 | 11100 | 3800 | 63.3 | 14.5 | 5.92 | SQVLMA (ligand) APTSSSTKKTQLQLSQLLVLLMAILNGINNYKNPKLTRMLTFKFYMPKKATELKHLQCLEEELKPLEEVLNLAQSKNFHLRPRDLISNINVIVLELKGSETTFMCEYADETATIVEFLNRWITFCQSIISTLT
33400 | 27700 | 13800 | 2.96 | 1.81 | 0.96 | 32400 | 21900 | 8150 | 171 | 22.6 | 11.7 | ΔA1, SQVLKA (ligand) PTSSSTKKTQLQLSQLLVLLKAILNGINNYKNPKLTRMLTFKFYMPKKATELKHLQCLEEELKPLEEVLNLAQSKNFHLRPRDLISNINVIVLELKGSETTFMCEYADETATIVEFLNRWITFCQSIISTLT
64000 | 61900 | 27800 | 4.41 | 3.8 | 1.77 | 40100 | 31000 | 12400 | 34.2 | 29.4 | 10.5 | ΔP2, SQVLKA (ligand) ATSSSTKKTQLQLSQLLVLLKAILNGINNYKNPKLTRMLTFKFYMPKKATELKHLQCLEEELKPLEEVLNLAQSKNFHLRPRDLISNINVIVLELKGSETTFMCEYADETATIVEFLNRWITFCQSIISTLT
55400 | 51900 | 25300 | 3.65 | 3.32 | 1.76 | 40800 | 29200 | 10700 | 49.1 | 21.7 | 15.3 | ΔT7, SQVLKA (ligand) APTSSSKKTQLQLSQLLVLLKAILNGINNYKNPKLTRMLTFKFYMPKKATELKHLQCLEEELKPLEEVLNLAQSKNFHLRPRDLISNINVIVLELKGSETTFMCEYADETATIVEFLNRWITFCQSIISTLT
